Measurements taken from patent publication US20220204603A1 (PHARMABCINE, published 2022).

Assays:
[1] = target: T1, biotinylated human Ang2 protein (human, UniProt O15123 19-496, limits assumed, biotinylated (sites not given)); assay: competition ELISA: antibody preincubated with biotinylated hAng2, binding to coated integrin α3/β1
T1 construct: also called hAng2
T1 sequence (looked up): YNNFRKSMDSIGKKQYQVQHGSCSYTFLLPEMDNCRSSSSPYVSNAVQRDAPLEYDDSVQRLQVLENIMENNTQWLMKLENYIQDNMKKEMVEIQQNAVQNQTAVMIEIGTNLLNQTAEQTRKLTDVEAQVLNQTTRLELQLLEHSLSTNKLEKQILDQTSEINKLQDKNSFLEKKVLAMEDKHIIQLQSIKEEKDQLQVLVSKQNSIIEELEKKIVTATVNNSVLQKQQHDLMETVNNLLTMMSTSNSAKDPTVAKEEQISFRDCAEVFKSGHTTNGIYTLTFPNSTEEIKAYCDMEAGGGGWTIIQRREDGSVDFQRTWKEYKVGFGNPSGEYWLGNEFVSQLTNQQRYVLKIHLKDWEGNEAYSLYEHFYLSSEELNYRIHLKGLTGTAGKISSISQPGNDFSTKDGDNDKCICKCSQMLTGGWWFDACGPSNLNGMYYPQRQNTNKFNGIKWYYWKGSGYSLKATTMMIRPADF
Method: 1 μg/ml (100 μl per well) of a human Ti32-Fc (R&D Systems, 313-TI) or mouse Tie2-Fc (R&D Systems, 762-T2-100) solution, an integrin α3/β1 solution (R&D systems, 2840-A3-050), or an integrin α5/β1 solution (R&D systems, 3230-A5-050) was added to a 96-well immunoplate (Nunc, US) and then allowed to stand overnight at 4° C. for adsorption. The next day, the plate was washed four times with PBS containing 0.05% Tween-20 (hereinafter, referred to as PBST), and 200 μl of a 2% BSA/PBST solution was added to each well and then allowed to stand at room temperature for 1 hour to perform blocking. Anti-Ang2 candidate antibodies were serially diluted 4-fold at a maximum of 1000 nM, and biotinylated human Ang2 protein was made to a final concentration of 100 ng/mL or 625 ng/mL, followed by previous binding at room temperature for 1 hour. […] The plate was washed three times with PBST, 100 μl of HRP-conjugated streptavidin (R&D Systems, DY998) diluted to 1:200 was added to allow a reaction to occur at room temperature for 1 hour, thereby inducing binding, and the plate was washed four times with PBST, followed by color development using 100 μl of a TMB substrate reagent. The color development reaction was stopped by adding 50 μl of 2N H₂SO₄, and a Sunrise microplate reader (TECAN, CH) was used to measure specific absorbance OD₄₅₀ (FIGS. 4 and 5).

[2] = target: T2, His-tagged human Ang1 (R&D systems, 923-AN/CF) (human, UniProt Q15389 20-498, limits assumed); assay: binding ELISA, His-tagged human Ang1 coated at 1 µg/ml, detection with HRP anti-human IgG(kappa) [panel 'human Ang1 binding ELISA']
T2 construct: Bought protein; also called hAng1-his; not shown: His tag
T2 sequence (looked up): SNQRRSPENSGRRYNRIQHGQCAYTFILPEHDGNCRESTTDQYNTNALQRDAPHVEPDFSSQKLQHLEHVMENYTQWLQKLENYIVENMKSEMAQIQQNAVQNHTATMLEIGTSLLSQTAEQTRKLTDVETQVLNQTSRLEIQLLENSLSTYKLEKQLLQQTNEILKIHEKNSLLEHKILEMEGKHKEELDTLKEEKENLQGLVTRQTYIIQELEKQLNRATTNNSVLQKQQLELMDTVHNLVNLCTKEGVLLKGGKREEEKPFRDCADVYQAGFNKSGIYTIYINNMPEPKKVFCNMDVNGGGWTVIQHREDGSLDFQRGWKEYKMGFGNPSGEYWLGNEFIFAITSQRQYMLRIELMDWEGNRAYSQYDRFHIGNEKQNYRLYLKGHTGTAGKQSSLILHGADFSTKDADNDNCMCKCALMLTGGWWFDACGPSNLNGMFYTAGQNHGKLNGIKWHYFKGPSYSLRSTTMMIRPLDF
Method: 1 μg/ml (100 μl per well) of a His-tagged human (R&D systems, 623-AN/CF) or mouse (sino, 50298-M07H) Ang2 solution or a His-tagged human (R&D systems, 923-AN/CF) or mouse (sino, 50300-M07H) Ang1 solution was added to a 96-well immunoplate (Nunc, US) and allowed to stand overnight at 4° C. for adsorption. The next day, the solution was washed three times with PBS containing 0.05% Tween-20 (hereinafter, referred to as PBST), and 200 μl of a 2% BSA/PBST solution was added to each well and then allowed to stand at room temperature for 2 hours to perform blocking. After washing three times with PBST, 100 μl of each test antibody solution was added to each well according to concentration to cause binding at room temperature for 1 hour, and then washing was performed three times with PBST, 100 μl of HRP-conjugated goat anti-human IgG(kappa) (bethyl lab #A80-115P) diluted to 1:2000 was added and allowed to react at room temperature for 1 hour, thereby inducing binding, and after washing three times with PBST, color development was performed using 100 μl of a TMB substrate reagent. The color development reaction was stopped by adding 50 μl of 2N H₂SO₄, and a Sunrise microplate reader (TECAN, CH) was used to measure specific absorbance OD₄₅₀₋₆₃₀ (FIG. 3).

[3] = target: T3, mouse Ang2 (construct not stated) (mouse, UniProt O35608 19-496, limits assumed); assay: competition ELISA: antibody preincubated with mAng2, binding to coated mouse Tie2-Fc
T3 construct: also called mAng2
T3 sequence (looked up): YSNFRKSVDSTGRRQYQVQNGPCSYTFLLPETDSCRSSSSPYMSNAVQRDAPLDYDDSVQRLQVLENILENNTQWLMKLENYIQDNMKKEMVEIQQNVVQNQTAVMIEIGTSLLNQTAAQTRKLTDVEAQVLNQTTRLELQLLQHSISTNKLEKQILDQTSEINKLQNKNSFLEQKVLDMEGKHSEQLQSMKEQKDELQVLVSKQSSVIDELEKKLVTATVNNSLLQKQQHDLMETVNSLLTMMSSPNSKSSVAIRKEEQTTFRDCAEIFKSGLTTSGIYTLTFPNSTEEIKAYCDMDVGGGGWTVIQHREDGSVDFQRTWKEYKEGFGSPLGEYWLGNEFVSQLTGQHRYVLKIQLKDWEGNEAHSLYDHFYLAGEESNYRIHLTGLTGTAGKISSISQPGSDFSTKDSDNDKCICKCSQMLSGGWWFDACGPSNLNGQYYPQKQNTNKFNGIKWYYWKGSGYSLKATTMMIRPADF

B1: No. 41 anti-Ang2 antibody (IgG) (antibody, V domains shown)
VH: QVQLVESGGGLVQPGGSLRLSCEASGFAFGRYEMNWVRQAPGKGLEWIAYIDTGGGAKVYADSVKGRFTISRDDSKNSLYLQMNSLRAEDTAVYYCTTEGLMNGLHFDMWGQGTMITVSS
VL: DIQMTQSPSTLSASVGDRVAITCRASQAISTWLAWYQQKPGKAPKLLIYTASTLESGVPSRFSGSGSGTDFTLTINSLQPDDFATYYCQQLNSYPYTFGGGTKVEIKR
notes: IgG form: VH cloned into Invivogen pfusess-hchg1, VL into Invivogen pfuse2ss-hclk; also called 2B2
IC50 [1]: 2.43 nM
binding result [2]: no binding (tested: 2 mg/ml (unit as read in the legend))
IC50 [3]: 3.98 nM

B2: No. 46 anti-Ang2 antibody (IgG) (antibody, V domains shown)
VH: QVQLVESGGGLVQPGRSLRLSCAASGFTFDDCAMHWVRQAPGKGLEWVSGISGNSKNVAYADSVKGRFSISRDDAKNSLYLQMNSLRAEDTAVYYCARDPAYSQFDYWGQGTLITVSS
VL: QSALTQPPSLSATPGQRVTISCSGSSSNVGGYPVNWYQQVPGAAPKLLMYTDYKRPSGVPDRFFGSKSGTSASLAISGLQSEDEADYYCATWDDNLNGYVFGTGTKVTVLG
notes: IgG form: VH cloned into Invivogen pfusess-hchg1, VL into Invivogen pfuse2ss-hclk; also called 3C6
IC50 [1]: 4.39 nM
binding result [2]: no binding (tested: 2 mg/ml (unit as read in the legend))
IC50 [3]: 5.25 nM

B3: No. 8 anti-Ang2 antibody (IgG) (antibody, V domains shown)
VH: QVQLVESGGGLVKPGGSLRLSCAASGFTFSSYSMNWVRQAPGKGLEWVSSISASDGATYYADSVRGRFTISRDNSRSTLYLQMNSLRAEDTAVYYCAKILAGYSGPMGGMDVWGQGTTVTVSS
VL: DIQMTQSPSSLSASVGDRVTITCRASRDISNYLAWYQQKPGKAPKSLIYGASNLQSGVSSQFSGSGSGTDFTLTINSLQPEDSATYYCQQYYSYPLTFGGGTKVDIKR
notes: IgG form: VH cloned into Invivogen pfusess-hchg1, VL into Invivogen pfuse2ss-hclk; also called 3A10
IC50 [1]: 4.68 nM
binding result [2]: no binding (tested: 2 mg/ml (unit as read in the legend))
IC50 [3]: 4.83 nM

B4: No. 4 anti-Ang2 antibody (IgG) (antibody, V domains shown)
VH: QVQLVESGAEVKRPGESLRISCKTSGYSFTSYWIHWVRQMPGKELEWMGSIYPGNSDTRYSPSFQGHVTISADSSSSTAYLQWSSLKASDTAMYYCTTEGLMNGLHFDMWGQGTMVTVSS
VL: DIVMTQTPLSLPVTPGEPASISCRSSQSLLHSLGDNYLDWYLQKPGQSPQLLIYLGSKRAAGVPDRFSGSGSGTDFTLKISRVEAEDVGVYYCMQSLQTPPYTFGQGTKLEIKR
notes: IgG form: VH cloned into Invivogen pfusess-hchg1, VL into Invivogen pfuse2ss-hclk; also called 2D8
IC50 [1]: 2.42 nM
binding result [2]: no binding (tested: 2 mg/ml (unit as read in the legend))
IC50 [3]: 4.54 nM

B5: No. 3 anti-Ang2 antibody (IgG) (antibody, V domains shown)
VH: QMQLVQSGGGLVQPGRSLKLSCAASGFSFDDYAMHWVRQAPGKGLEWVATIKDDGSQTYYVDSVKGRFTISRDNAKSSLFLQMNSLRAEDTAVYYCTTEGLMNGLHFDMWGQGTMVTVSS
VL: LVLTQPPSVSGAPGQGVTISCTGSSSNIGAGYDVHWYQQFPGTAPKLLISGNNNRPSGLPDRFSGSKSGTSASLAITGLQAEDEADYYCQSYDSRLGVVFGGGTKLTVLG
notes: IgG form: VH cloned into Invivogen pfusess-hchg1 (heavy chain constant region), VL into Invivogen pfuse2ss-hclk (light chain constant region); Expressed in Expi293F, purified on Protein A; also called 1D10
IC50 [1]: 2.5 nM
binding result [2]: no binding (tested: 2 mg/ml (unit as read in the legend))
IC50 [3]: 5.02 nM
